From PMC6667215, “Cell-sized confinement controls generation and stability of a protein wave for spatiotemporal regulation in cells” (eLife, 2019) come the findings set out here.

This assay deals with T1, sfGFP-MinD^D40AΔ10 (E. coli MG1655, UniProt P0AEZ3 1-260, D40A).
T1 construct: MinD of E. coli MG1655 with the D40A mutation and deletion of the C-terminal 10 amino acids, made from pET15-sfGFP-minD; 55 kDa after removal of the 2 kDa His-Tag (so in the source); also called MinD mutant treated by thrombin; His-sfGFP-MinD^D40AΔ10 (before cleavage); not shown: His tag, N-terminal, cleaved; sfGFP, N-terminal, kept
T1 sequence (looked up): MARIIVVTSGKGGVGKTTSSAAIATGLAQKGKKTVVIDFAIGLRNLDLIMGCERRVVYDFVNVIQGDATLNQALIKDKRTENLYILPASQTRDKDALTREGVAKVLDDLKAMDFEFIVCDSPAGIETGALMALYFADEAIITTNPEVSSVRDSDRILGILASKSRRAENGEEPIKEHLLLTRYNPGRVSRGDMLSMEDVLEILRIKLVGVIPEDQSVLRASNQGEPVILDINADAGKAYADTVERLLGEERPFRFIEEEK
Nature of the assay: pull-down; His-tagged Min protein held on cOmplete His-Tag purification (Ni-NTA) resin; 9 µM MinE-mCherry-His, 3 µM His-sfGFP-MinD or 6 µM thrombin-treated MinD^D40AΔ10, with or without 3 µM BSA; RE buffer, 30 min, room temperature; washed with 20 mM imidazole, eluted with 250 mM imidazole; SDS-PAGE and CBB staining. The conditions noted are these: both partners purified.

B1: MinE-mCherry-His (natural protein, E. coli K12 MG1655, UniProt P0A734 1-88, looked up)
chain: MALLDFFLSRKKNTANIAKERLQIIVAERRRSDAEPHYLPQLRKDILEVICKYVQIDPEMVTVQLEQKDGDISILELNVTLPEAEELK
notes: MinE, gene amplified from the E. coli K12 MG1655 genome and cloned into pET29a with mCherry (pET29-minE-mCherry-His); The 6xHis-tag was attached at the C-terminal of mCherry by PCR; the mCherry gene came from the pET21b-RL027A plasmid (Addgene); source: E. coli BL21-CodonPlus(DE3) RIPL, purified (His-Tag purification resin, HiTrap Q HP); not shown: mCherry, C-terminal, kept; 6xHis, C-terminal, …
Consider B1, for which the binding result is on record as “binds”.
